Numbered stars: 1 amine (or outer) side, 2 acyl side, 3 side chain; on linkers, the order of the positions; unused ones are H or OH. Bridge positions count the residues as written; N and C are the ends. Square brackets hold non-standard residues; d marks the D form. Primed or numbered codes have the meaning given here. MB(10) = Monomer B = PyrS, pyrrolidine stapling residue with allyl carbamate, (S)-3-amino-1-(allyloxycarbonyl)pyrrolidine-3-carboxylic acid, C=CCOC(=O)N1CC[C@@](N[*:1])(C(=O)[*:2])C1; MB(8) = Monomer B (PyrS), pyrrolidine stapling residue bearing N-allyl carbamate (Alloc), forms carbamate staple with R8 by ring-closing olefin metathesis, i to i+7; MB(9) = Monomer B (PyrS), pyrrolidine stapling residue with N-allyloxycarbonyl (Alloc), forms a carbamate staple with R8 by olefin metathesis; MB″ = Monomer B (PyrS), pyrrolidine stapling residue with N-allyl carbamate, forms carbamate staple with R8 by olefin metathesis; 2Pal = N[C@@H](Cc1ccccn1)C(=O)O; R8 = C=CCCCCCC[C@@](C)(N)C(=O)O

First the molecules themselves.
T1: full-length beta-catenin (UniProt P35222 2-781, limits assumed)
T1 construct: mature; also called full-length ß-Catenin; β-catenin
T1 sequence (looked up): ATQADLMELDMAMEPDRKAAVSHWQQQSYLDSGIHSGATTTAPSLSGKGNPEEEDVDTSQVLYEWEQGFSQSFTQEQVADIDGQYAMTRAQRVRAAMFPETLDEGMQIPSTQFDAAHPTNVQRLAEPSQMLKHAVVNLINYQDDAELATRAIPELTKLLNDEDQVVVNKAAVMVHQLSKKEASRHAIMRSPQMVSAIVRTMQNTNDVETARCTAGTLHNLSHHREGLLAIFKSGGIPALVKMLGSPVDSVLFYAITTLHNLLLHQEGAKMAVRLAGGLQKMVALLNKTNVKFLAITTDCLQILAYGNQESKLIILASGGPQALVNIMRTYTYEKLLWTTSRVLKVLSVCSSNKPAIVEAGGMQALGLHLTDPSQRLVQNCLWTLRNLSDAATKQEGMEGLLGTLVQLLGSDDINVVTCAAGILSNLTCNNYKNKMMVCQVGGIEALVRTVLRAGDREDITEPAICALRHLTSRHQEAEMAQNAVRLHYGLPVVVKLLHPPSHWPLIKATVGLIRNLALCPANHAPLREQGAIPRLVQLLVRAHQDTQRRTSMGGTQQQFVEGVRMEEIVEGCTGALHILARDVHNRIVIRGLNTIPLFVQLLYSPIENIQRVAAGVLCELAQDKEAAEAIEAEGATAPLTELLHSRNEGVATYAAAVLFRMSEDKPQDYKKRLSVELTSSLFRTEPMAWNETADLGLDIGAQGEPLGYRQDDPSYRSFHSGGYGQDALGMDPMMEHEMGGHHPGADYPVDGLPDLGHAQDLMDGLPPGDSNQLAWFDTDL

B1: FP0409c (peptide)
peptide: AXILDAHAXRVW
modifications: not fully specified; Ac-A-R8-I-L-D-A-H-A-MB-R-V-W-NH2; carbamate staple R8/MB
B2: FP0557c Isomer 1 (peptide)
peptide: Ac-A[R8]ILDA[2Pal]I[MB(9)]LVW-NH2
modifications: staple 2-9; not fully specified; printed as Ac-A-R8-I-L-D-A-2pyr-I-MB-L-V-W-NH2
B3: FP0556c Isomer 1 (peptide)
peptide: Ac-A[R8]ILDA[2Pal]I[MB(10)]IVW-NH2
modifications: staple 2-9; not fully specified; printed as Ac-A-R8-I-L-D-A-2pyr-I-MB-I-V-W-NH2
B4: FP0561c Isomer 1 (peptide)
peptide: Ac-A[R8]ILDA[2Pal]I[MB(8)]TVW-NH2
modifications: staple 2-9; not fully specified; printed as Ac-A-R8-I-L-D-A-2pyr-I-MB-T-V-W-NH2
B5: FP0540c (peptide)
peptide: Ac-A[R8]ILDAFI[MB(10)]RVW-NH2
modifications: staple 2-9
B6: FP0562c Isomer 1 (peptide)
peptide: Ac-A[R8]ILDA[2Pal]I[MB(8)]VVW-NH2
modifications: staple 2-9; not fully specified; printed as Ac-A-R8-I-L-D-A-2pyr-I-MB-V-V-W-NH2
B7: FP0562c Isomer 2 (peptide)
peptide: Ac-A[R8]ILDA[2Pal]I[MB(8)]VVW-NH2
modifications: staple 2-9; not fully specified; printed as Ac-A-R8-I-L-D-A-2pyr-I-MB-V-V-W-NH2
B8: FP0560c Isomer 1 (peptide)
peptide: Ac-A[R8]ILDA[2Pal]I[MB(8)]SVW-NH2
modifications: staple 2-9; not fully specified; printed as Ac-A-R8-I-L-D-A-2pyr-I-MB-S-V-W-NH2
B9: FP0559c Isomer 2 (peptide)
peptide: Ac-A[R8]ILDA[2Pal]I[MB(8)]QVW-NH2
modifications: staple 2-9; not fully specified; printed as Ac-A-R8-I-L-D-A-2pyr-I-MB-Q-V-W-NH2
B10: FP0554c Isomer 2 (peptide)
peptide: Ac-A[R8]ILDA[2Pal]I[MB(10)]AVW-NH2
modifications: staple 2-9; not fully specified; printed as Ac-A-R8-I-L-D-A-2pyr-I-MB-A-V-W-NH2
B11: FP0558c Isomer 1 (peptide)
peptide: Ac-A[R8]ILDA[2Pal]I[MB(9)]NVW-NH2
modifications: staple 2-9; not fully specified; printed as Ac-A-R8-I-L-D-A-2pyr-I-MB-N-V-W-NH2
B12: FP0559c Isomer 1 (peptide)
peptide: Ac-A[R8]ILDA[2Pal]I[MB(9)]QVW-NH2
modifications: staple 2-9; not fully specified; printed as Ac-A-R8-I-L-D-A-2pyr-I-MB-Q-V-W-NH2
B13: FP0555c Isomer 1 (peptide)
peptide: Ac-A[R8]ILDA[2Pal]I[MB(10)]FVW-NH2
modifications: staple 2-9; not fully specified; printed as Ac-A-R8-I-L-D-A-2pyr-I-MB-F-V-W-NH2
B14: FP0558c Isomer 2 (peptide)
peptide: Ac-A[R8]ILDA[2Pal]I[MB(9)]NVW-NH2
modifications: staple 2-9; not fully specified; printed as Ac-A-R8-I-L-D-A-2pyr-I-MB-N-V-W-NH2
B15: FP0563c Isomer 1 (peptide)
peptide: Ac-A[R8]ILDA[2Pal]I[MB″]WVW-NH2
modifications: staple 2-9; not fully specified; printed as Ac-A-R8-I-L-D-A-2pyr-I-MB-W-V-W-NH2
B16: FP0561c Isomer 2 (peptide)
peptide: Ac-A[R8]ILDA[2Pal]I[MB(8)]TVW-NH2
modifications: staple 2-9; not fully specified; printed as Ac-A-R8-I-L-D-A-2pyr-I-MB-T-V-W-NH2
B17: FP0563c Isomer 2 (peptide)
peptide: Ac-A[R8]ILDA[2Pal]I[MB″]WVW-NH2
modifications: staple 2-9; not fully specified; printed as Ac-A-R8-I-L-D-A-2pyr-I-MB-W-V-W-NH2
B18: FP0564c Isomer 2 (peptide)
peptide: Ac-A[R8]ILDA[2Pal]I[MB″]YVW-NH2
modifications: staple 2-9; not fully specified; printed as Ac-A-R8-I-L-D-A-2pyr-I-MB-Y-V-W-NH2
B19: FP0555c Isomer 2 (peptide)
peptide: Ac-A[R8]ILDA[2Pal]I[MB(10)]FVW-NH2
modifications: staple 2-9; not fully specified; printed as Ac-A-R8-I-L-D-A-2pyr-I-MB-F-V-W-NH2
B20: FP0560c Isomer 2 (peptide)
peptide: Ac-A[R8]ILDA[2Pal]I[MB(8)]SVW-NH2
modifications: staple 2-9; not fully specified; printed as Ac-A-R8-I-L-D-A-2pyr-I-MB-S-V-W-NH2
B21: FP0564c Isomer 1 (peptide)
peptide: Ac-A[R8]ILDA[2Pal]I[MB″]YVW-NH2
modifications: staple 2-9; not fully specified; printed as Ac-A-R8-I-L-D-A-2pyr-I-MB-Y-V-W-NH2
B22: FP0554c Isomer 1 (peptide)
peptide: Ac-A[R8]ILDA[2Pal]I[MB(10)]AVW-NH2
modifications: staple 2-9; not fully specified; printed as Ac-A-R8-I-L-D-A-2pyr-I-MB-A-V-W-NH2
B23: FP0557c Isomer 2 (peptide)
peptide: Ac-A[R8]ILDA[2Pal]I[MB(9)]LVW-NH2
modifications: staple 2-9; not fully specified; printed as Ac-A-R8-I-L-D-A-2pyr-I-MB-L-V-W-NH2
B24: FP0556c Isomer 2 (peptide)
peptide: Ac-A[R8]ILDA[2Pal]I[MB(10)]IVW-NH2
modifications: staple 2-9; not fully specified; printed as Ac-A-R8-I-L-D-A-2pyr-I-MB-I-V-W-NH2

The assay has as its target T1, full-length beta-catenin. The experiment in a line: competition FP; NB = no binding detected. The method, then: In some embodiments, a competition fluorescence polarization assay is used to assess binding of provided compounds to beta-catenin. In an exemplary procedure, solutions of provided compounds, e.g., provided stapled peptides, were prepared in a buffer (e.g., 50 mM Tris pH 8.0, 250 mM NaCl, 2% glycerol, 0.5 mM EDTA, 0.02% w/v sodium azide) using a 3-fold serial dilution from 5 µM. Probe solution (15 nM full-length ß-Catenin, 20 nM FITC labeled peptide in buffer) was prepared and incubated for a period of time, e.g., 5 minutes, and the a volume, e.g., 40 µL per well plated in suitable plate, e.g., a black polystyrene 384-well plate (Corning). Equal volume of the serial diluted peptide was added to the plate and incubated protected from light for 15 minutes prior to read. Reads were performed on a Spectramax M5 (Molecular Devices) in duplicate. Suitable probe was FITC-PEG1-PQ-S5-ILD-S5-HVRRVWR (SEQ ID NO: 1) (hydrocarbon staple formed by two S5 via olefin metathesis) and/or FITC-bA-PQ-S5-ILD-S5-HVRRVWR (SEQ ID NO: 3) (hydrocarbon staple formed by two S5 via olefin metathesis). […] Another peptide, FPO217c (Ac-AR_8ILDAHIM$B5$RVW (SEQ ID NO: 280), with N-terminal proline removed and valine replaced with isoleucine compared to FP0025c) was prepared.
Take B1: the binding result is “no binding”.

On to B2, for which the binding result is “no binding”.

For the molecule B3, the binding result was “no binding”.

As for B4, the binding result is listed as “no binding”.

Regarding B5, the binding result is on record as “no binding”.

With B6, the binding result is recorded as “no binding”.

In the case of B7, the binding result is reported as “no binding”.

B8: the binding result was “no binding”.

For the molecule B9, the binding result is given as “no binding”.

As to B10, the binding result was “no binding”.

Consider B11, for which the binding result is “no binding”.

Consider B12, for which the binding result was “no binding”.

In the case of B13, the binding result was “no binding”.

Take B14: the binding result is “no binding”.

For B15, the binding result is “no binding”.

On to B16, for which the binding result is listed as “no binding”.

With B17, the binding result is “no binding”.

Take B18: the binding result was “no binding”.

As for B19, the binding result is recorded as “no binding”.

Regarding B20, the binding result is given as “no binding”.

Turning to B21, the binding result is reported as “no binding”.

For B22, the binding result is “no binding”.

Regarding B23, the binding result is listed as “no binding”.

Take B24: the binding result is “no binding”.

The record behind these values is patent US11198713B2, “Agents modulating beta-catenin functions and methods thereof” (FOG PHARMACEUTICALS, INC., priority 2017, dated 2021).
